Here are results for 29 molecules from patent US8895526B2, “Identification of RNAI targets and use of RNAI for rational therapy of chemotherapy-resistant leukemia and other cancers” (Cold Spring Harbor Laboratory, priority 2009, dated 2014).

The chains are these.
B1: Mgst1.549: shRNA, SEQ ID NO: 142 (nucleic acid)
chain: TGCTGTTGACAGTGAGCGCAAGGAGCAGACTGTACTTGTATAGTGAAGCCACAGATGTATACAAGTACAGTCTGCTCCTTATGCCTACTGCCTCGGA
B2: Myb.2652: shRNA, SEQ ID NO: 144 (also SEQ ID NO: 53) (nucleic acid)
chain: TGCTGTTGACAGTGAGCGCCCCAAGTAATACTTAATGCAATAGTGAAGCCACAGATGTATTGCATTAAGTATTACTTGGGATGCCTACTGCCTCGGA
B3: Klf5.581: shRNA, SEQ ID NO: 135 (nucleic acid)
chain: TGCTGTTGACAGTGAGCGCTCCGATAATTTCAGAGCATAATAGTGAAGCCACAGATGTATTATGCTCTGAAATTATCGGAATGCCTACTGCCTCGGA
B4: Acpp.818: shRNA, SEQ ID NO: 87 (nucleic acid)
chain: TGCTGTTGACAGTGAGCGAAAAGAGAAATCTCGACTCCAATAGTGAAGCCACAGATGTATTGGAGTCGAGATTTCTCTTTCTGCCTACTGCCTCGGA
B5: Ptpn18.247: shRNA, SEQ ID NO: 170 (nucleic acid)
chain: TGCTGTTGACAGTGAGCGCCACGAACAAGAACCGCTACAATAGTGAAGCCACAGATGTATTGTAGCGGTTCTTGTTCGTGTTGCCTACTGCCTCGGA
B6: Rock2.3898: shRNA, SEQ ID NO: 174 (nucleic acid)
chain: TGCTGTTGACAGTGAGCGCCAGATTCTATATGCCAATGAATAGTGAAGCCACAGATGTATTCATTGGCATATAGAATCTGATGCCTACTGCCTCGGA
B7: Dnajc10.2057: shRNA, SEQ ID NO: 113 (nucleic acid)
chain: TGCTGTTGACAGTGAGCGCTCCAACGACAGTGGTATTCAATAGTGAAGCCACAGATGTATTGAATACCACTGTCGTTGGATTGCCTACTGCCTCGGA
B8: Nrp1.479: shRNA, SEQ ID NO: 155 (nucleic acid)
chain: TGCTGTTGACAGTGAGCGCACCCTCATTCTTACCATCCAATAGTGAAGCCACAGATGTATTGGATGGTAAGAATGAGGGTATGCCTACTGCCTCGGA
B9: Ntrk3.167: shRNA, SEQ ID NO: 156 (nucleic acid)
chain: TGCTGTTGACAGTGAGCGCCTGCAGCAAGACTGAGATCAATAGTGAAGCCACAGATGTATTGATCTCAGTCTTGCTGCAGATGCCTACTGCCTCGGA
B10: Mcl1.2018: shRNA, SEQ ID NO: 140 (also SEQ ID NO: 45) (nucleic acid)
chain: TGCTGTTGACAGTGAGCGCGGACTGGTTATAGATTTATAATAGTGAAGCCACAGATGTATTATAAATCTATAACCAGTCCATGCCTACTGCCTCGGA
B11: Myb.2572: shRNA, SEQ ID NO: 143 (also SEQ ID NO: 52) (nucleic acid)
chain: TGCTGTTGACAGTGAGCGCTCCATGTATCTCAGTCACTAATAGTGAAGCCACAGATGTATTAGTGACTGAGATACATGGAATGCCTACTGCCTCGGA
B12: Cdc42ep3.1922: shRNA, SEQ ID NO: 104 (nucleic acid)
chain: TGCTGTTGACAGTGAGCGCAACAAGCAAGGTATTACTGTATAGTGAAGCCACAGATGTATACAGTAATACCTTGCTTGTTTTGCCTACTGCCTCGGA
B13: Bcl2.2169: shRNA, SEQ ID NO: 96 (also SEQ ID NO: 42) (nucleic acid)
chain: TGCTGTTGACAGTGAGCGACAGTAGAAATTATATGCATTATAGTGAAGCCACAGATGTATAATGCATATAATTTCTACTGCTGCCTACTGCCTCGGA
B14: Centa1.940: shRNA, SEQ ID NO: 106 (nucleic acid)
chain: TGCTGTTGACAGTGAGCGCCCGAAGGCTCATGTACTTCAATAGTGAAGCCACAGATGTATTGAAGTACATGAGCCTTCGGTTGCCTACTGCCTCGGA
B15: Gart.2713: shRNA, SEQ ID NO: 127 (nucleic acid)
chain: TGCTGTTGACAGTGAGCGAACCAGGGTAATTAATCACAAATAGTGAAGCCACAGATGTATTTGTGATTAATTACCCTGGTGTGCCTACTGCCTCGGA
B16: Nrg4.1358: shRNA, SEQ ID NO: 153 (nucleic acid)
chain: TGCTGTTGACAGTGAGCGCCAGACATGTTGAAGTGAATAATAGTGAAGCCACAGATGTATTATTCACTTCAACATGTCTGTTGCCTACTGCCTCGGA
B17: Pkm2.2154: shRNA, SEQ ID NO: 166 (nucleic acid)
chain: TGCTGTTGACAGTGAGCGCGCCCACCTGAATGTCAATAAATAGTGAAGCCACAGATGTATTTATTGACATTCAGGTGGGCATGCCTACTGCCTCGGA
B18: Myb.670: shRNA, SEQ ID NO: 145 (also SEQ ID NO: 54) (nucleic acid)
chain: TGCTGTTGACAGTGAGCGACACAACCATTTGAATCCAGAATAGTGAAGCCACAGATGTATTCTGGATTCAAATGGTTGTGCTGCCTACTGCCTCGGA
B19: AU018778.350: shRNA, SEQ ID NO: 94 (nucleic acid)
chain: TGCTGTTGACAGTGAGCGCCTGAAGATTGCCTGTACCTAATAGTGAAGCCACAGATGTATTAGGTACAGGCAATCTTCAGATGCCTACTGCCTCGGA
B20: Ccr1.733: shRNA, SEQ ID NO: 101 (nucleic acid)
chain: TGCTGTTGACAGTGAGCGCCTGGATTGACTACAAGTTGAATAGTGAAGCCACAGATGTATTCAACTTGTAGTCAATCCAGATGCCTACTGCCTCGGA
B21: Ogg1.395: shRNA, SEQ ID NO: 157 (nucleic acid)
chain: TGCTGTTGACAGTGAGCGACAGATCAAGTATGGACACTGATAGTGAAGCCACAGATGTATCAGTGTCCATACTTGATCTGCTGCCTACTGCCTCGGA
B22: Hexa.1510: shRNA, SEQ ID NO: 131 (nucleic acid)
chain: TGCTGTTGACAGTGAGCGAGAGCAGTAACCTGACAACTAATAGTGAAGCCACAGATGTATTAGTTGTCAGGTTACTGCTCCTGCCTACTGCCTCGGA
B23: Fas.1344: shRNA, SEQ ID NO: 118 (nucleic acid)
chain: TGCTGTTGACAGTGAGCGCGAGGAGAATTATAAACTGAAATAGTGAAGCCACAGATGTATTTCAGTTTATAATTCTCCTCATGCCTACTGCCTCGGA
B24: Smpd2.592: shRNA, SEQ ID NO: 183 (nucleic acid)
chain: TGCTGTTGACAGTGAGCGACAGCATGTCTACAGTCTGAATTAGTGAAGCCACAGATGTAATTCAGACTGTAGACATGCTGGTGCCTACTGCCTCGGA
B25: Bcl2.906: shRNA, SEQ ID NO: 98 (nucleic acid)
chain: TGCTGTTGACAGTGAGCGCGCACAGGAATTTTGTTTAATATAGTGAAGCCACAGATGTATATTAAACAAAATTCCTGTGCATGCCTACTGCCTCGGA
B26: Bcl2.1422: shRNA, SEQ ID NO: 95 (also SEQ ID NO: 41) (nucleic acid)
chain: TGCTGTTGACAGTGAGCGACCGGGAGAACAGGGTATGATATAGTGAAGCCACAGATGTATATCATACCCTGTTCTCCCGGCTGCCTACTGCCTCGGA
B27: Nln.1429: shRNA, SEQ ID NO: 151 (nucleic acid)
chain: TGCTGTTGACAGTGAGCGAAAGGATAAAGCTACTGGAGAATAGTGAAGCCACAGATGTATTCTCCAGTAGCTTTATCCTTCTGCCTACTGCCTCGGA
B28: Tex14.3976: shRNA, SEQ ID NO: 185 (nucleic acid)
chain: TGCTGTTGACAGTGAGCGCCAGGAGCTACTTGATGAAATTTAGTGAAGCCACAGATGTAAATTTCATCAAGTAGCTCCTGATGCCTACTGCCTCGGA
B29: Slc11a1.307: shRNA, SEQ ID NO: 178 (nucleic acid)
chain: TGCTGTTGACAGTGAGCGCAACATTGAGTCCGACCTTCAATAGTGAAGCCACAGATGTATTGAAGGTCGGACTCAATGTTTTGCCTACTGCCTCGGA

The subject of one data set is tet-on competent MLL/AF9+Nras AML. As to the kind of experiment: Pooled negative selection RNAi screening (deep sequencing). To be noted: deep sequencing reads, On Dox compared to T0. In kind it is cell-based, mouse. An outline of the steps:
(§1)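 A pool of 1230 tet-regulated shRNAs (TRMPV-type) was retrovirally transduced at mostly single copy and ~1000-fold representation into tet-on MLL/AF9+Nras AML cells or immortalized murine embryonic fibroblasts, then cultured on or off doxycycline. shRNA-expressing cells were FACS-sorted, and shRNA representation was quantified by PCR and deep sequencing of genomic DNA, with depletion on dox compared against t0 and off dox.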
Turning to B1, the “Fold depletion in AML” value is listed as 9.14 Fold.
Same read-out and setting: in the case of B2 it was 15.46 Fold; in that of B3, 9.37 Fold; in that of B4, 9.00 Fold.
As to B5, the “Fold depletion in AML” value amounted to 8.13 Fold.
Take B6: the “Fold depletion in AML” value came out at 8.10 Fold.
The same measure, in the same setting: in the case of B7 it was 8.99 Fold; in that of B8, 8.19 Fold; in that of B9, 8.88 Fold.
On the same count and under the same terms, in the case of B10 it was 11.48 Fold; in that of B11, 67.47 Fold.
For the molecule B12, the “Fold depletion in AML” value was 315.30 Fold.
On the same count and under the same terms, in the case of B13 it was 12.61 Fold.
Still for that read-out and setting: in the case of B14 it was 8.24 Fold.
As for B15, the “Fold depletion in AML” value was 8.73 Fold.
For B16, the “Fold depletion in AML” value amounted to 8.11 Fold.
Still for that read-out and setting: in the case of B17 it was 9.63 Fold; in that of B18, 26.46 Fold.
The same measure, in the same setting: in the case of B19 it was 8.45 Fold; in that of B20, 472.15 Fold.
Same read-out and setting: in the case of B21 it was 8.69 Fold; in that of B22, 1,777.36 Fold; in that of B23, 8.57 Fold.
Turning to B24, the “Fold depletion in AML” value is on record as 8.63 Fold.
For the molecule B25, the “Fold depletion in AML” value is given as 12.28 Fold.
For the molecule B26, the “Fold depletion in AML” value is on record as 1,686.19 Fold.
Still for that read-out and setting: in the case of B27 it was 8.03 Fold; in that of B28, 9.60 Fold; in that of B29, 9.52 Fold.

A further data set has as its system immortalized murine embryonic fibroblasts (Mef). Described as above. To be noted: deep sequencing reads, on dox compared to initial representation. In kind it is cell-based. The procedure, abridged: as §1
In the case of B1, the “Fold depletion in Mef” value is 1.09 Fold.
For B2, the “Fold depletion in Mef” value stood at 1.14 Fold.
Same read-out and setting: in the case of B3 it was 1.01 Fold.
For B4, the “Fold depletion in Mef” value was 0.85 Fold.
Consider B5, for which the “Fold depletion in Mef” value worked out at 0.21 Fold.
On the same count and under the same terms, in the case of B6 it was 1.04 Fold; in that of B7, 1.47 Fold; in that of B8, 0.83 Fold.
Still for that read-out and setting: in the case of B9 it was 1.76 Fold; in that of B10, 3.02 Fold; in that of B11, 0.92 Fold.
On the same count and under the same terms, in the case of B12 it was 0.38 Fold; in that of B13, 1.62 Fold; in that of B14, 1.13 Fold.
As for B15, the “Fold depletion in Mef” value is listed as 2.22 Fold.
B16: the “Fold depletion in Mef” value was found to be 0.54 Fold.
Same read-out and setting: in the case of B17 it was 1.92 Fold.
For B18, the “Fold depletion in Mef” value is on record as 1.28 Fold.
Still for that read-out and setting: in the case of B19 it was 1.18 Fold; in that of B20, 1.18 Fold; in that of B21, 1.44 Fold.
Still for that read-out and setting: in the case of B22 it was 2.13 Fold; in that of B23, 1.36 Fold; in that of B24, 2.89 Fold.
Same read-out and setting: in the case of B25 it was 0.98 Fold; in that of B26, 2.71 Fold; in that of B27, 1.61 Fold.
For the molecule B28, the “Fold depletion in Mef” value came out at 1.90 Fold.
B29: the “Fold depletion in Mef” value was found to be 0.41 Fold.
